Experimental data from US20240239878A1 (SHANGHAI QILU PHARMACEUTICAL RESEARCH AND DEVELOPMENT CENTRE, published 2024).
Changes are numbered by the printed parent chain. Like-named read-outs stand apart in the source and are kept apart here. One block for each binder: values may come before it.

Experiments:
[1] = target: T1, human DLL3 on SHP-77 cells (human, UniProt Q9NYJ7 27-618); experiment: flow cytometry, SHP-77 cells
T1 construct: also called DLL3-expressing cells (SHP-77)
T1 sequence: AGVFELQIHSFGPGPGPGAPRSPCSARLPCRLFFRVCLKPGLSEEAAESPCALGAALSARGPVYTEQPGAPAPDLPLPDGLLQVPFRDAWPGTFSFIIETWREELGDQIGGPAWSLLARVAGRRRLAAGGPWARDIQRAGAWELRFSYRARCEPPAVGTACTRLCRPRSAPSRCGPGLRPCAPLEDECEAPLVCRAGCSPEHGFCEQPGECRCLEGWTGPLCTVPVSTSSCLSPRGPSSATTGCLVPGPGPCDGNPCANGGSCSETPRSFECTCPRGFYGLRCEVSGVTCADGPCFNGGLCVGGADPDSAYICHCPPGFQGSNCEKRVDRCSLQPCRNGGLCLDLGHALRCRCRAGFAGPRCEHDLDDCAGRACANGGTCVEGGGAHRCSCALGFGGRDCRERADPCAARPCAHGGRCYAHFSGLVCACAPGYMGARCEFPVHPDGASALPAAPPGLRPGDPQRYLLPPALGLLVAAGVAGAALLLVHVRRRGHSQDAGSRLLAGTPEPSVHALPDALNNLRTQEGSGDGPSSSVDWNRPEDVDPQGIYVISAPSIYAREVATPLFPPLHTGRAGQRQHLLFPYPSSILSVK
Method: (§1) SHP-77 and HEK293-cyno DLL3 cells were cultured. The culture medium for SHP-77 cells were RPMI1640+10% FBS, and the culture medium for HEK293 cyno DLL3 cells was DMEM+10% FBS+200 μg/ml Hygromycin. The cells were cultured in a T75 cell culture flask at a 37° C. 5% CO₂ incubator. When using cells, they are washed with sterile DPBS, digested with 0.25% trypsin EDTA for about 5 minutes, and then stopped with a complete medium.
(§2) The digested cells were centrifuged at 1000 rpm for 5 min at room temperature. The supernatant was discarded and the cells were resuspended in 100 μL of 1% BSA (in PBS). The cells were counted and adjusted to a cell density of 1E6/m. The dilute cells were seeded in a 96-well round-bottom culture plate (corning 3799), and centrifuged at 1500 rpm for 5 min at 4° C. The supernatant was discarded and the cells were stored at 4° C. until use. Antibody samples to be tested were diluted with 1% BSA (in PBS) at a starting concentration of 100 nM, downwards by a 10-fold gradient for 7 concentrations. The cells were resuspended with the diluted antibody at 100 μL/well and incubated for 1 hour at 4° C. The cells were centrifuged at 1500 rpm for 5 minutes at 4° C. and the supernatant was discarded. The cells were resuspended and washed with 160 μL of 1% BSA (in PBS), centrifuged at 1500 rpm for 5 minutes at 4° C. The supernatant was discarded. The secondary antibody (goat anti human IgG Fc PE) was diluted 1:200 with 1% BSA (in PBS) according to the manufacturer's instructions and the cells were resuspended with the diluted secondary antibody. 100 µL/well, and incubated for 0.5 h at 4° C. The cells were centrifuged at 1500 rpm for 5 minutes at 4° C. and the supernatant was discarded. The cells were resuspended and washed with 160 μL of 1% BSA (in PBS), centrifuged at 1500 rpm for 5 minutes at 4° C. The supernatant was discarded. The cells were resuspended in 100 μL of 1% BSA (in PBS), and filtered across a 300 mesh gauze. The mean fluorescence intensity of the PE channels was measured by flow cytometry.
(§3) The analyzed mean fluorescence intensity was imported into Graphpad to analyze the median-binding concentration (hereinafter referred to as EC50) of antibody and cell and the top mean fluorescence intensity (Top MFI).

[2] = target: T1, human DLL3 on SHP-77 cells; experiment: flow cytometry, SHP-77 cells; remark: listed apart in the source
Method: as §1, with “cells were” for “cells was”
as §2, with “antibody,” for “antibody.”, “μL/well,” for “µL/well,”
as §3

[3] = target: T2, Cynomolgus monkey DLL3 on HEK293 cells (HEK293-cyno DLL3) (Cynomolgus monkey, UniProt Q9NYJ7 27-618 (human entry)); experiment: flow cytometry, HEK293-cyno DLL3 cells
T2 chain: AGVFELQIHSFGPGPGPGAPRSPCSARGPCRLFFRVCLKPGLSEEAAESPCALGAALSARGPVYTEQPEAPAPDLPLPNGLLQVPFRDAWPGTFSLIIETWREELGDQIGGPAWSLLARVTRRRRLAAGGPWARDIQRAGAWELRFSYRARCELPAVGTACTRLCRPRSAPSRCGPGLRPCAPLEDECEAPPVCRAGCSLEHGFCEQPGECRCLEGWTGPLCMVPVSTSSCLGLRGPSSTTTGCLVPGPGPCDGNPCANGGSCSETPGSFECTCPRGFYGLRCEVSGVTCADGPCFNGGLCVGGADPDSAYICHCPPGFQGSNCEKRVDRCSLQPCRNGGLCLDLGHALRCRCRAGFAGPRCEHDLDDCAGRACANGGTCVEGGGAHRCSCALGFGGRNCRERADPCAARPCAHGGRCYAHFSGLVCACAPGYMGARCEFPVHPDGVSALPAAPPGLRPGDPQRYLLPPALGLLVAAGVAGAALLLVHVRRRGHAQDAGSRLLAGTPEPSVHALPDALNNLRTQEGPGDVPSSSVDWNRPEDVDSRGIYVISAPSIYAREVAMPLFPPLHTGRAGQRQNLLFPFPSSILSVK
Method: as §1, with “cells were” for “cells was”
as §2, with “antibody,” for “antibody.”, “μL/well,” for “µL/well,”
as §3

[4] = target: T1, human DLL3 on SHP-77 cells; experiment: flow cytometry, SHP-77 cells; remark: listed apart in the source
Method: SHP-77 cells were cultured. The culture medium for SHP-77 cells was RPMI1640+10% FBS. The cells were cultured in a T75 cell culture flask at a 37° C. 5% CO₂ incubator. When using cells, they are washed with sterile DPBS, digested with 0.25% trypsin EDTA for about 5 minutes, and then stopped with a complete medium.
as §2, with “plated” for “seeded”, “antibody,” for “antibody.”
as §3

EC50 [1]: 1.45 nM | Top MFI [1]: 178 MFI
B1: 47E12D12-1 mouse hybridoma-derived anti-DLL3 chimeric antibody (antibody, V domains shown)
VH: EVQLVESGGGLVKPGGSLKLSCAASGFTFSDYGMHWVRQAPEKGLEWVAYISSGSSTIYYADTVKGRFTISRDNAKNTLFLQMTSLRSEDTAMYYCARNSRGFAYWGQGTLVTVSA
VL: DIVLTQSPAIMSASPGEKVTMTCSASSSVSYMYWYQQKPGSSPRLLIYDTSNLASGVPVRFSGSGSGTSYSLTISRMEAEDAATYYCQQWSSYPRTFGGGTKLEIK

EC50 [1]: 8.63 nM | Top MFI [1]: 193 MFI
B3: 39E2D11-2 mouse hybridoma-derived anti-DLL3 chimeric antibody (antibody, V domains shown)
VH: QVQLKQSGPGLVQPSQSLSITCTVSGFSLTSYGVHWVRQSPGKGLEWLGVIWSGGSTDYNAAFISRLSISKDNPKSQVFFKMNSLQADDTAIYYCARENYYGNSLWFFDVWGTGTTVTVSS
VL: DIVLTQSPATLSVTPGDSVSLSCRASQSINNNLHWYQQKSHESPRLLIKYVSQSISGIPSRFSGSGSGTDFTLTINSVETEDFGMYFCQQTNSWPLTFGAGTKLELK

Top MFI [1]: 369 MFI
B4: 40G3D1 mouse hybridoma-derived anti-DLL3 chimeric antibody (antibody, V domains shown)
VH: QVQLQQSGAELVKPGASVKISCKASGYAFSSQWMNWVKQRPGKGLEWIGQIYPGNGDTNYNGKFKGKATLTADKSSSTAYIQLSSLTSEDSAVYFCARWFAYWGQGTLVTVSA
VL: B3 VL with A9V, I29V, N30R, T74S, M85V, T91S

EC50 [2]: 0.389 nM | Top MFI [2]: 622 MFI | EC50 [3]: 1.01 nM | Top MFI [3]: 148 MFI
B5: hDLL3-276 camelid-derived humanized anti-DLL3 antibody (antibody, V domains shown)
VH: QVQLVESGGGVVQPGGSLRLSCAASGSTASTTYMGWFRQAPGKGREGVAIIYTARDNPWYADSVKGRFTISRDNSKNTLYLQMNSLRAEDTAVYYCAATLANPTRTAWGQGTLVTVSS

EC50 [4]: 2.13 nM | Top MFI [4]: 1430 MFI
B6: H1-39E2D11 mouse hybridoma-derived humanized anti-DLL3 antibody (antibody, V domains shown)
VH: QVQLVQSGAEVKKPGASVKVSCKASGYTFISYWITWVRQAPGQGLEWMGDIYPGSGSTTNYNEKFKSRVTMTRDTSTSTVYMELSSLRSEDTAVYYCARETTVGGAYAMDYWGQGTLVTVSS
VL: EIVLTQSPATLSLSPGERATLSCRASQSINNNLHWYQQKPGQAPRLLIYYVSQSISGIPARFSGSGSGTDFTLTISSLEPEDFAVYYCQQTNSWPLTFGGGTKLEIK

Continued, binder first:

B2: 47E12D12-2 mouse hybridoma-derived anti-DLL3 chimeric antibody (antibody, V domains shown)
VH: B1 VH
VL: DIVLIQSPTIMSASPGEKVTMTCSASSSVSSMHWYQQKSGTSPKRWIYDTSKLASGVPARFSGSGSGTSYSLTISTMEAEDAATYYCQQWNSYHLTFGAGTKLELK
EC50 [1]: 69.3 nM | Top MFI [1]: 455 MFI

B7: H1-45E4D7 mouse hybridoma-derived humanized anti-DLL3 antibody (antibody, V domains shown)
VH: QVQLVQSGAEVKKPGASVKVSCKASGYTFTSHWITWVRQAPGQGLEWMGDIYPISGSTNNNEKFRNRVTMTRDTSTSTVYMELSSLRSEDTAVYYCAKIITVGGAYVMDYWGQGTLVTVSS
VL: B6 VL with L4M, L13V, I29V, N30R, D70E, E79Q, P80S, T91S
EC50 [4]: 5.16 nM | Top MFI [4]: 1590 MFI

B8: hDLL3-12-1 camelid-derived humanized anti-DLL3 antibody (antibody, V domains shown)
VH: QVQLVESGGGVVQPGRSLRLSCAASGFAFSSYDMHWVRQAPGKGLEWVSSISRDGRGPRYADSVKGRFTISRDNSKNTLYLQMNSLRAEDTAVYYCSKGYPIMGGTTQGTLVTVSS
EC50 [2]: 0.052 nM | Top MFI [2]: 690 MFI | EC50 [3]: 2.36 nM | Top MFI [3]: 178 MFI

B9: hDLL3-12-2 camelid-derived humanized anti-DLL3 antibody (antibody, V domains shown)
VH: B8 VH with G44D, L45F
EC50 [2]: 0.081 nM | Top MFI [2]: 804 MFI | EC50 [3]: 1.35 nM | Top MFI [3]: 190 MFI
